Experiment in all cases: pull-down
In assay [1] the target is His-ImuB-L378A (M. smegmatis) (M. smegmatis).
Assay [2] addresses His-ImuB-L378A+V383A (M. smegmatis) (M. smegmatis).
For assay [3], the target named is His-ImuB-V383A (M. smegmatis) (M. smegmatis).

Turning to “Strep-VFP-tagged ImuA’ (M. smegmatis) (natural protein)”, the fold less pulled down than by His-ImuB in assay [1] came out at 1.5 fold; in assay [2] it was 3 fold; in assay [3] it was 1.5 fold.
